# Test results: US20250101107A1
# B1: 02A01-Fab-IL12 (LC) (protein, from a related filing, not shown: a dimerising Fc or GST)
# VH: EVQLQQSGPELVKPGASLKISCKASGYTFTDFTMHWVKQSHGKSLEWIGLVNPNNGGNIYNQNFKGKATLTVDTSSSTAYMELRSLTSEDSSVYYCGRVPLYTSHGMDYWGQGTSVTVSS
# VL: DIVLTQSPAFLAVSLGQRATISCRASESVDSYDINSMHWYQQKPGQPPKLLIYRASHLQSGIPARFSGSGSRTDFTLTINFVEADDVATYYCQQSNEDPLTFGAGTKLELK
# B2: 03A01-Fab-IL12 (LC) (protein, from a related filing, not shown: a dimerising Fc or GST)
# VH: DVQFQESGPGLVKPSQSLSLTCTVTGYSITSDFAWNWIRQFPGNELEWMGYISYSGDTNYNPSLRSRISITRDTSKNQFFLQLDSVTTEDTATYYCTIRGYYTDSAFVFWGQGTLVTVSA
# VL: DIQMTQSSSYLSVSLGGRVTITCKASDHINNWLAWYQQKPGNAPRLLISGATSLETGVPSRFTGSGSGLDYTLSITSLQTEDVATYYCQQYWNSPFTFGSGTKLEIK
# B3: 02A01-Fab-Fc-IL12 (LC) (protein, from a related filing, not shown: a dimerising Fc or GST)
# VH: EVQLQQSGPELVKPGASLKISCKASGYTFTDFTMHWVKQSHGKSLEWIGLVNPNNGGNIYNQNFKGKATLTVDTSSSTAYMELRSLTSEDSSVYYCGRVPLYTSHGMDYWGQGTSVTVSS
# VL: DIVLTQSPAFLAVSLGQRATISCRASESVDSYDINSMHWYQQKPGQPPKLLIYRASHLQSGIPARFSGSGSRTDFTLTINFVEADDVATYYCQQSNEDPLTFGAGTKLELK
# B4: 03A01-Fab-Fc-IL12 (LC) (protein, from a related filing, not shown: a dimerising Fc or GST)
# VH: DVQFQESGPGLVKPSQSLSLTCTVTGYSITSDFAWNWIRQFPGNELEWMGYISYSGDTNYNPSLRSRISITRDTSKNQFFLQLDSVTTEDTATYYCTIRGYYTDSAFVFWGQGTLVTVSA
# VL: DIQMTQSSSYLSVSLGGRVTITCKASDHINNWLAWYQQKPGNAPRLLISGATSLETGVPSRFTGSGSGLDYTLSITSLQTEDVATYYCQQYWNSPFTFGSGTKLEIK
# Biological target: human CD8 on human T cells (human) (UniProt P01732)
# Assay: cell-based or functional assay
# Chain of human CD8 on human T cells (human) (P01732 22-235, chain 1 of 2): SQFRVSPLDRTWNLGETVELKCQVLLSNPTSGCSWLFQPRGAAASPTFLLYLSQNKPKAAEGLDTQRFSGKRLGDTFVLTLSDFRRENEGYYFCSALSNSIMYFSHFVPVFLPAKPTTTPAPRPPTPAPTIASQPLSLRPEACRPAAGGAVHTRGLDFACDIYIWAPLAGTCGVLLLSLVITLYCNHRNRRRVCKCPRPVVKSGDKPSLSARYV
# Chain of human CD8 on human T cells (human) (P10966 22-210, chain 2 of 2, further chain): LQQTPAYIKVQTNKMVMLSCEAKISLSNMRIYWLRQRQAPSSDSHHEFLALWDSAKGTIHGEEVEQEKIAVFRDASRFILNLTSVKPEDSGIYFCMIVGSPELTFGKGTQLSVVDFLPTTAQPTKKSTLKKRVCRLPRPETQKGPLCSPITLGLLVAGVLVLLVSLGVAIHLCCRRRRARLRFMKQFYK
row,Binder,"EC50 for stimulation of pSTAT4 signaling, CD8+ T cells in pre-activated human PBMCs [nM]"
1,B1,0.00174
2,B2,0.0111
3,B3,0.00211
4,B4,0.0134
